Measured values from the nanobody polyreactivity screen of Harvey et al. (2022).

Assay: yeast display, Sf9 membrane polyspecificity reagent, FACS + sequencing; frameworks hold sequencing errors
How it was run: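 Polyreactivity labels are assigned by the sorting gate from which each nanobody was recovered. The gates were low and high (top ~1%), set on anti-HA fluorescence for expression and streptavidin fluorescence for reagent binding. Before sorting, galactose-induced (36–48 hours) yeast display cells were stained for 1 hour at 4 °C with 10% biotinylated, detergent-solubilized Sf9 membrane reagent.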

Sequence | polyreactivity (PSR sort gate)
QVQLVESGGGLVEAGGSLRLSCAASGSIFAVNTMGWYRKAPGKERELVASITRGGSTNYADSVKGRFAISRDNAKKSVYLQMNSQKPEDSAVYYCAARPTWWYDYWGQGNQVTVSS | high polyreactivity
QVQLVESGGGLVEAGGSLRLSCAASGSIFGNYALGWYRQAPGKERELVAAITSSNGNTYNADSVKGRFTISRDTAKNTVYFQMNSLKPEDTAVYYCATDSWSPYLQTIFYYWGHGTQVTVSS | low polyreactivity
QVQLVESGGGLVEAGGSLRLSCAASGSIFSYNAMGWYRQAPGKERELVAAITDGGDRTYYADSVKGRFTISRDNAKNTVYLLMNSLIPEATAVYYCAAELYSYREDYGAHFAYEYWGQGTQVTVSS | low polyreactivity
QVQLVESGGGLVEAGGSLRLSCAASGSILYYNAMGWYRQAPGKERELVAAISTRGGSTYYADSVKGRFTSSRDNAKKTVYLQMNSLKPEDTAVYYCAADHNVIWGYYYWGQGTQVTVSS | high polyreactivity
QVQLVESGGGLVEAGGSLRLSCAASGSTFGSNAMGWYRQGPGKARELVARISKRGGSTYYADSVKGRFTISRDKAKNTVSIQINSLKPDDTAVYYCNVRSWWGYTGPYDYWRQGTQVTVSS | high polyreactivity
QVQLVESGGGLVEAGGSLRLSCAASGTFVYNAMGWYIQAPGKERELVAAISWSGSSTYADSVKGRFTISRDNAKNTVYLQMNSLKPEDTAVYYCAADGYGYNTYQQYYKKSSYWGQGTQVSVSS | low polyreactivity
QVQLVESGGGLVEGGGSLRLSCAASGFTFGRYTMGWYRQATGKERELVAAISWSGGSTYYADSVKGRFTISRDNAKNTVYLQLNSLKQEDTAVYNCATRLKSVSGGYNYWGQGTQVTVSS | high polyreactivity
QVQLVESGGGLVHAGCSLRLSCAASGFFFDYNAMGWYRQAPGKERELVAAISISGGGTYYADSVKGRFTISRDNAKNTVYLQKNSLKPEDTAVYYCAAAGIGGGGWGQGTQVTVSS | low polyreactivity
QVQLVESGGGLVHAGGCLRLSCAASGRNFYYYTMGWSRQEPGKERELVASISRSGDRTYYADSVKGRFTISRDYAKNTVYLQMNSLKPEDTAVYYCNAQKYPRYSRTSGRNYFFWGQGTQVTVSS | high polyreactivity
QVQLVESGGGLVHAGGILRLSCAASGRTFPYYAMGWYRQAPGKERELVAAISSSGGGTYYADSVKGRFTISRDTAKNTVYLQMNSLKPEDTAVYYCNAVSYYQDSFYYWGQGTQVTVSS | high polyreactivity
QVQLVESGGGLVHAGGRLRLSCPPSGRIFSYYTMGWYRQAPGKERELVAAISRGVSTNYADSVKGRFTISRDNAKNTVYLQMNSLKPEYSAVYYCNARHTWYYKYLHEYWGQGTQVTVSS | high polyreactivity
QVQLVESGGGLVHAGGSHRLSCAASGRTFPGYPMGWYIPAPGTERELVAGISYRGGSTYFADSVKGRFTISRDNAKNTVYLQMNSLKPEDTAVYFCARDYSRHKGDYWGQGTQGTVSS | low polyreactivity
QVQLVESGGGLVHAGGSLLLSCAASGSTLRPNAMGWYRKAPGKERELVDAISSGGSTYYADSVKGRFTISRDNAKYSVYLQMNSLKPEDTAVYSCAAASERSGYYYWGQGTQVTVSS | high polyreactivity
QVQLVESGGGLVHAGGSLRLICAGSGFTFRGYAMGWYRQAPGKEMELVADITSGGSTYYADSVKGRFTISRDNAKNTVYLQMNSLKPEDTAVYYCAPRQRSRSRYDYWGQGTQVTVSS | high polyreactivity
QVQLVESGGGLVHAGGSLRLSCAAPGRTSRYYVMGWYRQAPGKERELVAAISKNGGSTYYADSVKGRFTISRDNAKNTVYLQMNSLKPEDTAVYFCAASYYPFSYGHGYDYWGQGTQVTVSS | high polyreactivity
QVQLVESGGGLVHAGGSLRLSCAASGFIFYYNAMGWYRHAPGKERELVAGISRSAGSTYYADSVKGRFTISRDNAKNSVYLQMNSLKPEDTAVDYCAARYLSYITGTSYYWGQVTQVTVSS | low polyreactivity
QVQLVESGGGLVHAGGSLRLSCAASGFNFIVYAMGWYRQAPGKERELVASITYSGGGTYYADSVKGRFTISRDNAKNTVYLQMNSLIPEDTAVYYCNADVSWSYSVYREYGMDYWGQGTQVTVSS | low polyreactivity
QVQLVESGGGLVHAGGSLRLSCAASGFTFAYNAMGWYRQAPGKERELVAAIRRRGGITYYADSVKGRFTISRDNAKNTVYLQMNSLKPEDTAVYYCNAVRSYPAGYDSWGQGTQVTVSS | low polyreactivity
QVQLVESGGGLVHAGGSLRLSCAASGFTFDSNDKGWYRQAPGKERELVAAISTGGSTYYADSVKGRFTISRDNAKNTVYLQMNRLKPEDTAVYYCARDPPYPDTWYGYWGQGSQVTVSS | low polyreactivity
QVQLVESGGGLVHAGGSLRLSCAASGFTFGGYAKGWYIQAPGKERELVAAISQSGGRTYYADSVKGRFTISRDHAKNTFYLQMNSLKPEDTAVYYCAKPSTTYYQRGDYWGQGTQVTVSS | high polyreactivity
QVQLVESGGGLVHAGGSLRLSCAASGFTFGGYALGWYRQAPGKERELVAAITGSGGNTFYADSVKGRFTISRDNAKNTVYLQMNSLKPEDTAVYYCAKTWYPWSRYGYYRRYDSWGQGTQVTVSS | low polyreactivity
QVQLVESGGGLVHAGGSLRLSCAASGFTFGGYAMGWYRQAPGIEREFVAAISSSGGRTYYADSVKRRFTISRDNAKNTVYLPMNSLKPEDTAVYDCNVGQYLRARRPVDSWGQGTQVSVSS | high polyreactivity

Sequence | polyreactivity (PSR sort gate)
QVQLVESGGGLVHAGGSLRLSCAASGGTFTYYTMGWYRKAPGKERELVARISKNGGRTYYADSVKGRFTLSRDNAKNTLYLKMISLKPEDTAVYYCNAAGRPYDFSGGRTMEYWGQGTQVTVST | high polyreactivity
QVQLVESGGGLVHAGGSLRLSCAASGIIFDDYAMGWNRQAPGKERELVAAIRSGVSTNYADSVKGRFTISRDNAKNTVYLQMNSLKPEDTAVYYCAARNTAPYFTEYDYWGQGTQVTVSS | low polyreactivity
QVQLVESGGGLVHAGGSLRLSCAASGITYSRYAMGWYRQAPGKERELVAAITWDGGRTYYADTVKGRFTISRDIAKNTVYLQMNSVKPEDTAVYYCAAGSAWWYYWGQGTQVTVSS | high polyreactivity
QVQLVESGGGLVHAGGSLRLSCAASGLIFKTYTMGWYRQAPGKEREFVAAITTSGGSTYYADSVKGRFTISRDNAKNTDYVEMNRLKPEETAVYFCAAEGYTDATQSLFYYWGQGTQVTVSS | high polyreactivity
QVQLVESGGGLVHAGGSLRLSCAASGLTFDWYTMGWYRQAPGKERELVATINSGGSTDYADSVKGRFTISRDNAKNTVYLQMNSLKPEDTAVYYCNAEYGYSGVGDDYWGQGTQVTVSS | low polyreactivity
QVQLVESGGGLVHAGGSLRLSCAASGNIFKRNAMGWYRQAHGKERELVAAISGSGVRTYYADSVKGRFTISRDNAKNSVYLQMNSLKPEDTAVYYCNAEIRYSAWNWLSYEYWGQGTQVTVSS | high polyreactivity
QVQLVESGGGLVHAGGSLRLSCAASGNTFIRYAIGWYRQARGTQRELVASITKRCGSTYYADSVKGRFTISRDNAKNTVYLQMNCLKPEDTAVYYCDRGPSGTPIGNTPYGDNRYNSWGEGTQVTVSS | low polyreactivity
QVQLVESGGGLVHAGGSLRLSCAASGRIFGTNAMGWYIQAPGKERELVATITRGGGNTYYADSVKVRFTISRDHAMNTVDLQMNSLKPEDTAVYYCNVDYGVHVPPRDYWGQGTQVTVSS | low polyreactivity
QVQLVESGGGLVHAGGSLRLSCAASGRIFQVYAMGWYRQAPGKERELVAAISARGGSTYYADSVKGRFTISRDNAKNTVYLQMNSLKPEDTAVYYCAARSAYGTQRLYYWGQGTQVTVSS | high polyreactivity
QVQLVESGGGLVHAGGSLRLSCAASGRIFTSYVMGWYRQAPAKERELVAAITRSGGSTYYADSVKGRFTISRDNAKNTVYLQMISLKPEDTAVYYCNALTRRQKGGEGGGYWGQGTQVTVSS | high polyreactivity
QVQLVESGGGLVHAGGSLRLSCAASGRIFTWNAMGWYRQAPGKERELVARISSGTRTNYADSVKGRFTISRDNAKNTVYLQMNSLKPEDTAVYYCAAGYYYGYPPRDYWGQGTQVTVSS | high polyreactivity
QVQLVESGGGLVHAGGSLRLSCAASGRIFVRNDMGCYRQAPGKERELVAAISWDGGSTYYADSVKGRFTISRDNAKNTVYLQMNSLKPEDTAVYYCATDATRPWYDYWGQGTQVTVSS | low polyreactivity
QVQLVESGGGLVHAGGSLRLSCAASGRIFYKYAMAWYRQAPGKERELVAAISTRGGSTYYADSVKWRFTISRDNAKNTVYLQMNSLKPEDTAVYYCAALSAYGYDYWGQGTQVTVSS | high polyreactivity
QVQLVESGGGLVHAGGSLRLSCAASGRIFYYNAMGWYRQAPGKEREFVAAIRSSGGSTYYSDSVKGRFTISRDNAKNTVYLQMNSLKPEDTAVYYCAADFYGLGDYGVDYWGQGTQVTVSS | low polyreactivity
QVQLVESGGGLVHAGGSLRLSCAASGRIYYFNAMGWYRQAPGKERELVATITYIGGSTHYADSEKGRFTISRDNAKNTVYLQMNSLKPEVTAVYYCAVRDGKDTDTYWYGYWGQGTQVTVSS | low polyreactivity
QVQLVESGGGLVHAGGSLRLSCAASGRTFSYYTMAWYRQAPGKERELVAAISGRGGSTYYADSVKGRFTISRDNAKNTVYLQMNSLKPEDTAVYYCNVVKQYLGGVPDFDYWGQGTQVTVSS | low polyreactivity
QVQLVESGGGLVHAGGSLRLSCAASGRTFTRNAMGWYRQAPGKERELVAAISISGGRTYYADSVKGRFTISRDNAKNTVSLQMNSLKPEDTAVYYCANVTTSKYDYDYWGQGTQVTVSS | high polyreactivity
QVQLVESGGGLVHAGGSLRLSCAASGRTFYGNAMGWYRQAPGKEREFVAGISWRGGRTYYADSVKGRFTISRDNAKNTVYLQMHSLKPEDTGVYYCNARYIYTRPRPRNYWGLGTQVTVSS | high polyreactivity
QVQLVESGGGLVHAGGSLRLSCAASGRTLGGYAMGWYRQAPGKERELVAAISWNGGSTYYADSVKVRFTISRDNAKNTVYFQMNCLKPEDSAVYYCARVYSGPKAGAYDYWGQGTQVTVSS | high polyreactivity
QVQLVESGGGLVHAGGSLRLSCAASGSFFRSYAMGWYRQAPGKEMEWVATISSSTGSTYYADSVKGRFTISRDNAKNTVYLQMNSLKPEDTSVYYCAAVQPVKSCSGYHFWYYWGQGTQVTVSS | high polyreactivity
QVQLVESGGGLVHAGGSLRLSCAASGSIFDYYAMGWYRQAPGKERELVAAISTSTSSTYYADSVKGRFTISRDNAKNTVCLQMNSLKPEDTAVYYCAAEGESQPESPGYDYWGQGTQVTVSS | low polyreactivity
